{"source": "patent US8987424B2", "about": "“CA6 antigen-specific cytotoxic conjugate and methods of using the same” (ImmunoGen, Inc., priority 2003, dated 2015)", "key": {"BT-20 cells": {"system": "BT-20 cells", "assay": "MTT cell viability assay", "type": "cell-based, human", "conditions": "highest conjugate concentration (32 nM)", "experimental": "(§1) In the MTT assay, cells were seeded in 96-well plates at a density of 1000-5000 cells/well. The cells were plated with serial dilutions of either naked muDS6 or muDS6-DM1 immunoconjugate in 200 μl of culture media. The samples were run in triplicate. The cells and antibody/conjugate mixtures were then incubated for 2-7 d, at which time cell viability was assessed by an MTT ([3(4,5-dimethylthiazol-2-yl)-2,5-diphenyl tetrazolium bromide)] assay. MTT (50 μg/well) was added to the culture supernatant and allowed to incubate for 3-4 h at 37° C. The media was removed and the MTT formazan was solubilized in DMSO (175 μl/well). The absorbance at 540-545 nm was measured. […] The wells with the highest concentrations of conjugate contained no viable cells as compared to naked antibody which had no effect (FIGS. 21 and 24)."}, "OVCAR5 cells": {"system": "OVCAR5 cells", "assay": "MTT cell viability assay", "type": "cell-based, human", "conditions": "highest conjugate concentration (32 nM)", "experimental": "as §1"}, "HPAC cells": {"system": "HPAC cells", "assay": "MTT cell viability assay", "type": "cell-based, human", "conditions": "highest conjugate concentration (32 nM)", "experimental": "as §1"}, "KB tumor xenografts": {"system": "KB tumor xenografts", "assay": "Subcutaneous KB tumor xenograft efficacy study", "type": "in vivo, SCID mice", "experimental": "Tumor cells were inoculated on day 0, and the first treatment was given on day 6. Immunoconjugate treatments continued daily for a total of 5 doses. PBS control animals were euthanized once tumor volumes exceeded 1500 mm^3. The conjugate was given at a dose of 150 or 225 μg/kg DM1, corresponding to antibody concentrations of 5.7 and 8.5 mg/kg respectively. The body weights (FIG. 25B) of the mice were monitored during the course of the study.\nA subcutaneous model of the human cervical carcinoma cell-line, KB, was developed. KB cells were grown in vitro, collected, and 5×10^6 cells in a 100 μL of serum free medium were injected under the right shoulder of each mouse and allowed to grow for 6 days to an average tumor volume of 144±125 mm^3 at which time drug treatment was initiated. Mice were given either PBS, conjugate at 150 μg/kg DM1, or conjugate at 225 μg/kg DM1 (2 mice per group) intravenously every day for 5 days. Toxic responses were monitored daily during the treatment. Tumor volumes (FIG. 25A) and corresponding body weights (FIG. 25B) were monitored throughout the study."}, "HeLa tumor xenografts": {"system": "HeLa tumor xenografts", "assay": "Subcutaneous HeLa xenograft efficacy study", "type": "in vivo, SCID mice", "experimental": "OVCAR5 (FIG. 26A and FIG. 26B), TOV-21 G (FIG. 26C and FIG. 26D), HPAC (FIG. 26E and FIG. 26F), and HeLa (FIG. 26G and FIG. 26H) cells were inoculated on day 0, and immunoconjugate treatments were given on day 6 and 13. PBS control animals were euthanized once tumor volumes exceeded 1000 mm^3. The conjugate was given at a dose of 600 μg/kg DM1, corresponding to an antibody concentration 27.7 mg/kg. Tumor volume (FIG. 26A, FIG. 26C, FIG. 26E, and FIG. 26G) and body weight (FIG. 26B, FIG. 26D, FIG. 26F, and FIG. 26H) of the mice were monitored during the course of the study.\nmuDS6-DM 1 activity was further tested on a panel of subcutaneous xenograft models (see FIG. 26). […] OVCAR5 cells and TOV-21 G are ovarian tumor cell lines; HPAC is a pancreatic tumor cell line; HeLa is a cervical tumor cell line. OVCAR5 and TOV-21G cells have low surface CA6 expression; HeLa cells have an intermediate level of surface CA6 expression; HPAC cells have a high CA6 density of surface expression. TOV-21G and HPAC cells are maytansine sensitive; OVCAR5 and HeLa cells are 2-7-fold less maytansine sensitive.\nThe 4 cell-lines were grown in vitro, collected, and 1×10^7 cells in a 100 μL of serum free medium were injected under the right shoulder of each mouse (6 mice per model) and allowed to grow for 6 days to an average tumor volume of 57.6±6.7 and 90.2±13.4 mm^3 for the test and control groups respectively of OVCAR5, 147.1±29.6 and 176.2±18.9 mm^3 for the test and control groups respectively of HPAC, 194.3±37.2 and 201.7±71.7 mm^3 for the test and control groups respectively of HeLa, and 96.6±22.8 and 155.6±13.4 mm^3 for the test and control groups respectively of TOV-21G, at which time drug treatment was initiated. For each model three control mice were treated with two weekly doses of PBS and three test mice were treated with two weekly doses of conjugate (600 μg/kg DM1) intravenously. Toxic responses were monitored daily during the treatment and tumor volumes and body weights were monitored throughout the study. […]"}, "Caov-3 cells [1]": {"system": "Caov-3 cells", "assay": "MTT cell viability assay", "type": "cell-based, human", "experimental": "as §1"}, "Caov-3 cells [2]": {"system": "Caov-3 cells", "assay": "Indirect cell viability assay with anti-mouse IgG (H+L) DM1 conjugate", "type": "cell-based, human", "conditions": "without secondary conjugate"}, "[3]": {"conditions": "150 μg/kg DM1 i.v. daily for 5 days"}, "[4]": {"conditions": "600 μg/kg DM1, two weekly doses"}}}
{"molecule": "DS6-DM1: muDS6 antibody modified with SPP and conjugated to the maytansinoid DM1 (conjugate) VH: QAYLQQSGAELVRSGASVKMSCKASGYTFTSYNMHWVKQTPGQGLEWIGYIYPGNGATNYNQKFKGKATLTADPSSSTAYMQISSLTSEDSAVYFCARGDSVPFAYWGQGTLVTVSA VL: QIVLTQSPAIMSASPGEKVTITCSAHSSVSFMHWFQQKPGTSPKLWIYSTSSLASGVPARFGGSGSGTSYSLTISRMEAEDAATYYCQQRSSFPLTFGAGTKLELKR", "values": [{"measurement": "cells still viable", "setting": "BT-20 cells", "value": "over 50%"}, {"measurement": "cells still viable", "setting": "OVCAR5 cells", "value": "over 50%"}, {"measurement": "cells still viable", "setting": "HPAC cells", "value": "over 50%"}, {"measurement": "body weight", "setting": "KB tumor xenografts; 150 μg/kg DM1", "value": "no weight loss"}, {"measurement": "time to complete tumor regression after treatment initiation", "setting": "KB tumor xenografts; [3]", "value": 18, "unit": "days"}, {"measurement": "tumor delay", "setting": "KB tumor xenografts; [3]", "value": "approximately 70 days"}, {"measurement": "treatment outcome", "setting": "KB tumor xenografts; 225 μg/kg DM1, no tumor recurrence at day 120", "value": "cures"}, {"measurement": "time to complete tumor regression after treatment initiation", "setting": "KB tumor xenografts; 225 μg/kg DM1 i.v. daily for 5 days", "value": 14, "unit": "days"}, {"measurement": "visible signs of toxicity", "setting": "KB tumor xenografts; during the 5-day treatment course, 150 and 225 μg/kg DM1", "value": "no visible signs of toxicity"}, {"measurement": "body weight", "setting": "HeLa tumor xenografts; [4]", "value": "no weight loss was observed"}, {"measurement": "tumor status at day 61", "setting": "HeLa tumor xenografts; [4]", "value": "tumor-free"}, {"measurement": "tumor regression", "setting": "HeLa tumor xenografts; 600 μg/kg DM1 i.v., two weekly doses", "value": "complete tumor regression in all mice"}]}
{"molecule": "DS6: murine anti-CA6 monoclonal antibody DS6 (ATCC deposit number PTA-4449) (antibody, V domains shown) VH: QAYLQQSGAELVRSGASVKMSCKASGYTFTSYNMHWVKQTPGQGLEWIGYIYPGNGATNYNQKFKGKATLTADPSSSTAYMQISSLTSEDSAVYFCARGDSVPFAYWGQGTLVTVSA VL: QIVLTQSPAIMSASPGEKVTITCSAHSSVSFMHWFQQKPGTSPKLWIYSTSSLASGVPARFGGSGSGTSYSLTISRMEAEDAATYYCQQRSSFPLTFGAGTKLELKR", "values": [{"measurement": "effect of naked antibody on cell viability", "setting": "Caov-3 cells [1]", "value": "no effect"}, {"measurement": "activity of naked antibody in cell cultures", "setting": "Caov-3 cells [2]", "value": "no proliferative or growth inhibitive activity"}]}
